One block for each binder: values may come before it.
Columns and labels:
[1] = target: T1, human 4-1BB (human, UniProt Q07011 24-255); assay: flow cytometry, CHO-K1 cells overexpressing human 4-1BB
T1 construct: whole, on cells; also called hu4-1BB; CD137

[2] = target: T2, human CEACAM5 protein (Sino-11077-H08H-100UG) (human, UniProt P06731 35-685); assay: ELISA, human CEACAM5 protein coated at 2 ug/mL
T2 construct: Bought protein; also called soluble recombinant CEACAM5
T2 sequence (looked up): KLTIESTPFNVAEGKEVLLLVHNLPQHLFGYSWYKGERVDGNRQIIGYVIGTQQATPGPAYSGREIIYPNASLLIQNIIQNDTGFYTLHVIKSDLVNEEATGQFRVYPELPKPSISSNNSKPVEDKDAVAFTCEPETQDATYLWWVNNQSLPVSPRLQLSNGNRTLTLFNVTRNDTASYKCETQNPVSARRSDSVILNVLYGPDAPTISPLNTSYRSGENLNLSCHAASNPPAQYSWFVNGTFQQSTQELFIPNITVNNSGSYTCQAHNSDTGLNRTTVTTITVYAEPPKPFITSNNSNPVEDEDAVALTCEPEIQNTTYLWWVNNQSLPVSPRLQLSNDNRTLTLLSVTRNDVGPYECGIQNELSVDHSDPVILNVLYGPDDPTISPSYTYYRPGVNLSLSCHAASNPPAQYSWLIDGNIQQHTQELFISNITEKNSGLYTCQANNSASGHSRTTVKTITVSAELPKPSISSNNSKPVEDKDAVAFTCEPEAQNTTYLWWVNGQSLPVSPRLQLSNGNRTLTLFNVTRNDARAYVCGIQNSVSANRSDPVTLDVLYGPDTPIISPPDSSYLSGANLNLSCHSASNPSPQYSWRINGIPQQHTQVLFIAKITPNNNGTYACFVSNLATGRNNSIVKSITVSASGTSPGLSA

T1 sequence (Q07011 24-255): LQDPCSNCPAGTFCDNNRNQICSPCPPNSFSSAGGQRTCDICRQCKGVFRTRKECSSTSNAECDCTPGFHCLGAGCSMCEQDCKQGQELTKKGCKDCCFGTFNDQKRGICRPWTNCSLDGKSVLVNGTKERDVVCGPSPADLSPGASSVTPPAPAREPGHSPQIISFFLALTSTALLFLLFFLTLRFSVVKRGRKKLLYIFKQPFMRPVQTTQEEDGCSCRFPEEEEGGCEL

binding result [1]: binds
B1: IMMU130-263-1-3 (bispecific antibody)
heavy (part 1 of 2): EVQLVESGGGVVQPGRSLRLSCSASGFDFTTYWMSWVRQAPGKGLEWIGEIHPDSSTINYAPSLKDRFTISRDNAKNTLFLQMDSLRPEDTGVYFCASLYFGFPWFAYWGQGTPVTVSS
heavy (part 2 of 2): GGGGSGGGGSGGGGSGGGGSEVQLLESGGGLVQPGGSLRLSCAASGFTFSSSAMSWARQTPGKGFEWVSGIYSGGSTYYTESVKDRFTISRDNSKNTVYLQMNSLKPEDTAVYYCATWGTLRFGVWAEYDHWGQGTQVTVSS
light: DIQLTQSPSSLSASVGDRVTITCKASQDVGTSVAWYQQKPGKAPKLLIYWTSTRHTGVPSRFSGSGSGTDFTFTISSLQPEDIATYYCQQYSLYRSFGQGTKVEIK
notes: also called parental bispecific antibody; parental antibody; not shown: IgG1 heavy chain constant region (full IgG part, Fc of IgG1 backbone with N297A mutation); light chain constant region is not described

binding result [2]: binds
B2: Labetuzumab (antibody, V domains shown)
VH: B1 heavy (part 1 of 2)
VL: B1 light
notes: also called Immu130; parental CEACAM5 antibody
